Series [1] deals with the molecule itself. The series can be described thus: SEC-MALS; size-exclusion chromatography coupled to multiangle light scattering of recombinant CERT constructs; absolute molar mass. In general terms: In gel filtration, larger molecules generally elute earlier.
Series [2] deals with the molecule itself. The series can be described thus: native MS; native MS of purified recombinant CERT 151-309 WT; deconvoluted mass spectrum.

Values joined by “and” are separate entries in the source; they are usually repeats but may differ in a detail not shown here. Equal entries are not always repeated.

B1: ceramide transporter CERT, recombinant full-length (CERT1 isoform 1, CERTL) (natural protein, human, UniProt Q9Y5P4-1 1-624, looked up)
chain: MSDNQSWNSSGSEEDPETESGPPVERCGVLSKWTNYIHGWQDRWVVLKNNALSYYKSEDETEYGCRGSICLSKAVITPHDFDECRFDISVNDSVWYLRAQDPDHRQQWIDAIEQHKTESGYGSESSLRRHGSMVSLVSGASGYSATSTSSFKKGHSLREKLAEMETFRDILCRQVDTLQKYFDACADAVSKDELQRDKVVEDDEDDFPTTRSDGDFLHSTNGNKEKLFPHVTPKGINGIDFKGEAITFKATTAGILATLSHCIELMVKREDSWQKRLDKETEKKRRTEEAYKNAMTELKKKSHFGGPDYEEGPNSLINEEEFFDAVEAALDRQDKIEEQSQSEKVRLHWPTSLPSGDAFSSVGTHRFVQKPYSRSSSMSSIDLVSASDDVHRFSSQVEEMVQNHMTYSLQDVGGDANWQLVVEEGEMKVYRREVEENGIVLDPLKATHAVKGVTGHEVCNYFWNVDVRNDWETTIENFHVVETLADNAIIIYQTHKRVWPASQRDVLYLSVIRKIPALTENDPETWIVCNFSVDHDSAPLNNRCVRAKINVAMICQTLVSPPEGNQEISRDNILCKITYVANVNPGGWAPASVLRAVAKREYPKFLKRFTSYVQEKTAGKPILF
notes: human ceramide transporter CERT (CERT1), isoform 1 (CERTL), NP_005704; full-length recombinant protein; also called CERT WT; source: recombinant
As usually defined, the stoichiometry N is a count of units in the complex or per binding partner. As for B1, the “stoichiometry N” value in series [1] is 2.

B2: CERT construct encompassing the PH plus CCD domains (aa 1-341) (domain or fragment, human, UniProt Q9Y5P4-1 1-341, looked up)
chain: MSDNQSWNSSGSEEDPETESGPPVERCGVLSKWTNYIHGWQDRWVVLKNNALSYYKSEDETEYGCRGSICLSKAVITPHDFDECRFDISVNDSVWYLRAQDPDHRQQWIDAIEQHKTESGYGSESSLRRHGSMVSLVSGASGYSATSTSSFKKGHSLREKLAEMETFRDILCRQVDTLQKYFDACADAVSKDELQRDKVVEDDEDDFPTTRSDGDFLHSTNGNKEKLFPHVTPKGINGIDFKGEAITFKATTAGILATLSHCIELMVKREDSWQKRLDKETEKKRRTEEAYKNAMTELKKKSHFGGPDYEEGPNSLINEEEFFDAVEAALDRQDKIEEQSQ
notes: human CERT (CERT1 isoform 1, CERTL), residues 1-341, PH plus CCD domains
In the case of B2, the “stoichiometry N” value in series [1] came to 2.

B3: CERT central core domain (CCD), purified recombinant CERT 151-309 WT (domain or fragment, human, UniProt Q9Y5P4-1 151-309, looked up)
chain: FKKGHSLREKLAEMETFRDILCRQVDTLQKYFDACADAVSKDELQRDKVVEDDEDDFPTTRSDGDFLHSTNGNKEKLFPHVTPKGINGIDFKGEAITFKATTAGILATLSHCIELMVKREDSWQKRLDKETEKKRRTEEAYKNAMTELKKKSHFGGPDY
notes: human CERT (CERT1 isoform 1, CERTL), residues 151-309, central core domain; Theoretical MW is printed as 18.5 kDa; also called CERT CCD; source: recombinant, purified
In the case of B3, the “stoichiometry N” value in series [2] was 2 and 4.

Values taken from article PMC10178846, “CERT1 mutations perturb human development by disrupting sphingolipid homeostasis” (The Journal of Clinical Investigation, 2023).
